# The supplement of paper PMC9112550, “Optimization of the antimicrobial peptide Bac7 by deep mutational scanning” (BMC Biology, 2022)
# Test system: Escherichia coli TOP10
# Experiment: shrunken log2 fold change of peptide-encoding DNA abundance (4.5 h post-induction vs induction); higher = less antimicrobial activity (less host growth inhibition)
# Conditions: time post-induction: 4.5 h; library: site-saturation at positions 5, 18, 19, 20
# 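Also: peptides expressed intracellularly from a pBAD plasmid library in pooled LB shake-flask culture, induced with 0.3% L-arabinose, DNA abundance read by NGS, three biological replicates, DESeq2 with apeglm shrinkage.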
row,Sequence,shrunken log2 fold change
1,RRIRFRPPRLPRPRPRPWVRPRP,0.0245
2,RRIRNRPPRLPRPRPRPCQWPRP,0.0401
3,RRIRFRPPRLPRPRPRPYMRPRP,0.00487
4,RRIRPRPPRLPRPRPRPSWKPRP,0.105
5,RRIRYRPPRLPRPRPRPRKMPRP,-0.178
6,RRIRYRPPRLPRPRPRPYAVPRP,-0.85
7,RRIRDRPPRLPRPRPRPKRDPRP,0.145
8,RRIRARPPRLPRPRPRPATCPRP,0.03
9,RRIRARPPRLPRPRPRPPLRPRP,1.63
10,RRIRYRPPRLPRPRPRPMCAPRP,-0.208
11,RRIRWRPPRLPRPRPRPMMVPRP,0.0168
12,RRIRERPPRLPRPRPRPRWQPRP,0.245
13,RRIRNRPPRLPRPRPRPNGWPRP,-0.0113
14,RRIRIRPPRLPRPRPRPGLEPRP,-0.0336
15,RRIRFRPPRLPRPRPRPWRVPRP,0.0748
16,RRIRMRPPRLPRPRPRPLKIPRP,-0.0474
17,RRIRVRPPRLPRPRPRPPYAPRP,-0.00506
18,RRIRWRPPRLPRPRPRPYPDPRP,-0.106
19,RRIRSRPPRLPRPRPRPWFHPRP,-0.664
20,RRIRVRPPRLPRPRPRPFKAPRP,-0.316
21,RRIRIRPPRLPRPRPRPECIPRP,-0.0632
22,RRIRDRPPRLPRPRPRPHAVPRP,0.163
23,RRIRLRPPRLPRPRPRPWGLPRP,0.171
24,RRIRKRPPRLPRPRPRPYMDPRP,-0.763
25,RRIRIRPPRLPRPRPRPGQPPRP,0.0462

row,Sequence,shrunken log2 fold change
1,RRIRNRPPRLPRPRPRPLLIPRP,0.589
2,RRIRGRPPRLPRPRPRPPHDPRP,1.27
3,RRIRYRPPRLPRPRPRPKICPRP,-0.0342
4,RRIRFRPPRLPRPRPRPARCPRP,0.44
5,RRIRTRPPRLPRPRPRPNKQPRP,-0.207
6,RRIRGRPPRLPRPRPRPGQGPRP,0.0965
7,RRIRGRPPRLPRPRPRPVIDPRP,0.292
8,RRIRYRPPRLPRPRPRPGHGPRP,-0.111
9,RRIRCRPPRLPRPRPRPEVWPRP,0.725
10,RRIRQRPPRLPRPRPRPIMTPRP,-0.107
11,RRIRIRPPRLPRPRPRPHEHPRP,-0.405
12,RRIRMRPPRLPRPRPRPSEQPRP,-0.0153
13,RRIRWRPPRLPRPRPRPIEHPRP,-0.133
14,RRIRLRPPRLPRPRPRPFLEPRP,-0.106
15,RRIRERPPRLPRPRPRPWMDPRP,-0.101
16,RRIRERPPRLPRPRPRPQYTPRP,-1.16
17,RRIRPRPPRLPRPRPRPSWCPRP,0.108
18,RRIRHRPPRLPRPRPRPYTGPRP,-0.304
19,RRIRNRPPRLPRPRPRPQQMPRP,0.0512
20,RRIRTRPPRLPRPRPRPLPHPRP,-0.00316
21,RRIRMRPPRLPRPRPRPICTPRP,0.153
22,RRIRFRPPRLPRPRPRPDSSPRP,-0.055
23,RRIRFRPPRLPRPRPRPIHDPRP,-0.211
24,RRIRSRPPRLPRPRPRPGGHPRP,0.161
25,RRIRRRPPRLPRPRPRPAASPRP,0.38

row,Sequence,shrunken log2 fold change
1,RRIRCRPPRLPRPRPRPSQIPRP,-0.698
2,RRIRERPPRLPRPRPRPDRGPRP,0.0208
3,RRIRNRPPRLPRPRPRPEACPRP,0.0475
4,RRIRRRPPRLPRPRPRPVCWPRP,0.586
5,RRIRDRPPRLPRPRPRPIVVPRP,0.218
6,RRIRTRPPRLPRPRPRPGQYPRP,-0.286
7,RRIRDRPPRLPRPRPRPHITPRP,-0.7
8,RRIRRRPPRLPRPRPRPATGPRP,0.222
9,RRIRTRPPRLPRPRPRPYGHPRP,-0.587
10,RRIRCRPPRLPRPRPRPDISPRP,0.0772
11,RRIRRRPPRLPRPRPRPMKCPRP,-0.0984
12,RRIRDRPPRLPRPRPRPNQEPRP,-0.0564
13,RRIRFRPPRLPRPRPRPTWEPRP,-0.0897
14,RRIRMRPPRLPRPRPRPMPYPRP,0.018
15,RRIRWRPPRLPRPRPRPYWMPRP,-0.265
16,RRIRFRPPRLPRPRPRPDEWPRP,0.0983
17,RRIRKRPPRLPRPRPRPGHSPRP,-0.0124
18,RRIRNRPPRLPRPRPRPVWCPRP,-0.226
19,RRIRNRPPRLPRPRPRPDIVPRP,-0.0101
20,RRIRARPPRLPRPRPRPLRMPRP,0.655
21,RRIRYRPPRLPRPRPRPYDKPRP,-1.24
22,RRIRWRPPRLPRPRPRPDRGPRP,-0.0836
23,RRIRRRPPRLPRPRPRPWYQPRP,-3.03
24,RRIRWRPPRLPRPRPRPNDRPRP,0.174
25,RRIRIRPPRLPRPRPRPCYWPRP,-0.131

row,Sequence,shrunken log2 fold change
1,RRIRKRPPRLPRPRPRPIQRPRP,-0.0846
2,RRIRCRPPRLPRPRPRPFWWPRP,0.925
3,RRIRCRPPRLPRPRPRPRDTPRP,0.0379
4,RRIRWRPPRLPRPRPRPCEEPRP,0.0489
5,RRIRKRPPRLPRPRPRPFKKPRP,0.00557
6,RRIRRRPPRLPRPRPRPTTRPRP,0.941
7,RRIRMRPPRLPRPRPRPDKTPRP,0.00408
8,RRIRERPPRLPRPRPRPVWWPRP,0.149
9,RRIRSRPPRLPRPRPRPELNPRP,0.399
10,RRIRWRPPRLPRPRPRPIVAPRP,0.541
11,RRIRNRPPRLPRPRPRPIYHPRP,-0.526
12,RRIRWRPPRLPRPRPRPIMEPRP,0.0164
13,RRIRQRPPRLPRPRPRPSVCPRP,-0.14
14,RRIRWRPPRLPRPRPRPRCKPRP,0.33
15,RRIRTRPPRLPRPRPRPLRNPRP,-0.0969
16,RRIRARPPRLPRPRPRPCMAPRP,0.104
17,RRIRFRPPRLPRPRPRPNETPRP,-0.0424
18,RRIRWRPPRLPRPRPRPRDVPRP,0.333
19,RRIRIRPPRLPRPRPRPMPWPRP,0.306
20,RRIRARPPRLPRPRPRPRSNPRP,0.0752
21,RRIRERPPRLPRPRPRPLWTPRP,0.0667
22,RRIRCRPPRLPRPRPRPRVCPRP,0.284
23,RRIRMRPPRLPRPRPRPAHAPRP,1.16
24,RRIRMRPPRLPRPRPRPWWAPRP,-0.0423
25,RRIRDRPPRLPRPRPRPWRCPRP,0.26

row,Sequence,shrunken log2 fold change
1,RRIRKRPPRLPRPRPRPFCSPRP,-0.00787
2,RRIRWRPPRLPRPRPRPPHPPRP,0.373
3,RRIRVRPPRLPRPRPRPYLEPRP,-0.141
4,RRIRCRPPRLPRPRPRPYMEPRP,-0.428
5,RRIRSRPPRLPRPRPRPKPTPRP,0.174
6,RRIRDRPPRLPRPRPRPLQWPRP,0.219
7,RRIRQRPPRLPRPRPRPNEPPRP,-0.0605
8,RRIRQRPPRLPRPRPRPPRKPRP,0.835
9,RRIRMRPPRLPRPRPRPDYAPRP,0.263
10,RRIRVRPPRLPRPRPRPKFGPRP,0.017
11,RRIRTRPPRLPRPRPRPCWLPRP,-0.0724
12,RRIRQRPPRLPRPRPRPSADPRP,0.354
13,RRIRARPPRLPRPRPRPMIHPRP,-0.119
14,RRIRIRPPRLPRPRPRPYWMPRP,-0.379
15,RRIRRRPPRLPRPRPRPPEYPRP,0.0513
16,RRIRRRPPRLPRPRPRPDGNPRP,0.0694
17,RRIRDRPPRLPRPRPRPKTQPRP,-0.0316
18,RRIRVRPPRLPRPRPRPYTIPRP,-0.736
19,RRIRFRPPRLPRPRPRPFNKPRP,-0.729
20,RRIRFRPPRLPRPRPRPITEPRP,-0.0279
21,RRIRNRPPRLPRPRPRPFWVPRP,0.0863
22,RRIRIRPPRLPRPRPRPWNKPRP,-0.0719
23,RRIRSRPPRLPRPRPRPVRKPRP,0.324
24,RRIRVRPPRLPRPRPRPDELPRP,-0.0586
25,RRIRDRPPRLPRPRPRPRASPRP,0.214

row,Sequence,shrunken log2 fold change
1,RRIRRRPPRLPRPRPRPWTCPRP,0.0743
2,RRIRERPPRLPRPRPRPKMTPRP,-0.0406
3,RRIRVRPPRLPRPRPRPIGCPRP,-0.0514
4,RRIRDRPPRLPRPRPRPQWYPRP,-0.45
5,RRIRMRPPRLPRPRPRPWMHPRP,-0.128
6,RRIRRRPPRLPRPRPRPGWPPRP,0.858
7,RRIRLRPPRLPRPRPRPGIKPRP,-0.874
8,RRIRWRPPRLPRPRPRPKYPPRP,-0.582
9,RRIRHRPPRLPRPRPRPEMTPRP,0.0257
10,RRIRIRPPRLPRPRPRPRGLPRP,-0.272
11,RRIRNRPPRLPRPRPRPIMWPRP,0.137
12,RRIRTRPPRLPRPRPRPAPWPRP,0.254
13,RRIRQRPPRLPRPRPRPNLQPRP,0.0864
14,RRIRERPPRLPRPRPRPGECPRP,-0.0577
15,RRIRWRPPRLPRPRPRPHETPRP,0.126
16,RRIRRRPPRLPRPRPRPYDGPRP,-0.101
17,RRIRRRPPRLPRPRPRPQIQPRP,0.151
18,RRIRFRPPRLPRPRPRPVASPRP,0.0266
19,RRIRDRPPRLPRPRPRPTQCPRP,-0.0857
20,RRIRDRPPRLPRPRPRPRNTPRP,-0.205
21,RRIRSRPPRLPRPRPRPYMNPRP,-0.479
22,RRIRQRPPRLPRPRPRPAWPPRP,0.303
23,RRIRTRPPRLPRPRPRPMEYPRP,-0.0122
24,RRIRWRPPRLPRPRPRPFPWPRP,-0.0524
25,RRIRMRPPRLPRPRPRPEVVPRP,2.97
